Assay [1] deals with Ma1α-neoGreen, expressed in Xenopus laevis oocytes (apple (Malus domestica)). As to the kind of experiment: single-molecule photobleaching step counting (TIRF); Ma1α-neoGreen alone in X. laevis oocytes, 16-24 h after cRNA injection, vitelline membrane removed, ND96 solution.
Assay [2] has the same target. As to the kind of experiment: single-molecule photobleaching step counting (TIRF); competition: Ma1α-neoGreen in X. laevis oocytes co-injected with 25% or 50% of the total cRNA as untagged Ma1β.

With “Ma1α-neoGreen, expressed in Xenopus laevis oocytes (natural protein)”, in assay [1], the percent of fluorescent spots with two discrete bleaching steps came out at 72% and the stoichiometry N – broadly, a count of units in the complex or per binding partner – stood at 2.
With “Ma1β, untagged, expressed in Xenopus laevis oocytes (natural protein)”, in assay [2], the percent Ma1α-neoGreen dimer population (two bleaching steps) with 25% of the total cRNA as untagged Ma1β is 38% and the percent Ma1α-neoGreen dimer population (two bleaching steps) with 50% of the total cRNA as untagged Ma1β was 30%.
